{"source": "paper PMC6741143", "about": "“A putative merR family transcription factor Slr0701 regulates mercury inducible expression of MerA in the cyanobacterium Synechocystis sp. PCC6803” (MicrobiologyOpen, 2019)", "key": {"[1]": {"target": "T1, Slr0701 (6x-His, MerR family regulator) (Synechocystis sp. PCC6803, UniProt Q55963 1-137)", "T1 sequence": "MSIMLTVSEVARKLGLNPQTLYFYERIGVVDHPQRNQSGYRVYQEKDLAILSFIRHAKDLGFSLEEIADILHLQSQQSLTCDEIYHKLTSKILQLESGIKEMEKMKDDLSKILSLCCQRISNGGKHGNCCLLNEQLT", "experiment": "SPR; 62 uM HgCl2; EMSA: 20 ul, 80 ng DNA, 0.5 or 1 ug protein, binding buffer not specified, 30 min at 25 C, 6% native PAGE in 0.5x TBE at 4 C, SYBR Green; SPR: Biacore T200, SA", "settings": "protein: recombinant; tags: 6xHis (text says C-terminal; pET-28a NheI/EcoRI clone, also written 6x-His-Slr0701); chain copies: 2; label: 5' biotin on strand 1; blunt"}, "[2]": {"target": "the molecule itself", "experiment": "SDS-PAGE without 2-mercaptoethanol; purified 6x-His-Slr0701 on 15% SDS-PAGE under semi-denaturing condition (without 2-mercaptoethanol), compared with a sample with 2-mercaptoethanol; monomer to dimer"}}}
{"binder": "Pslr0701 50-bp oligonucleotide duplex (dsDNA) DNA 1: TACTACAATATATTCCCTATACTTAGGTATAAGGTTGTAGGTTGATATAG DNA 2: CTATATCAACCTACAACCTTATACCTAAGTATAGGGAATATATTGTAGTA", "values": [{"measurement": "binding signal", "setting": "[1]", "value": "~1000 fold higher affinity with HgCl2 than without"}]}
{"binder": "6x-His-Slr0701 protein (putative MerR family transcriptional regulator Slr0701) (natural protein, Synechocystis sp. PCC6803, UniProt Q55963 1-137, looked up, Slr0701, putative MerR family transcriptional regulator of Synechocystis sp; PCC6803; the slr0701 ORF amplified with primers from the start codon (GTG) to the stop codon and cloned into pET-28a(+) at NheI and EcoRI; not shown: His6, C-terminal, kept) MSIMLTVSEVARKLGLNPQTLYFYERIGVVDHPQRNQSGYRVYQEKDLAILSFIRHAKDLGFSLEEIADILHLQSQQSLTCDEIYHKLTSKILQLESGIKEMEKMKDDLSKILSLCCQRISNGGKHGNCCLLNEQLT", "values": [{"measurement": "stoichiometry N", "setting": "[2]", "value": 2}]}
